According to the DeepSol protein solubility set:

Test: soluble on expression in E. coli; label from the status in PepcDB or PDB records
In the case of “SENDSIELDDVANLMFYGEGQIGTNKQPFMFIFDTGSANLWVPSVNCDSIGCSTKHLYDASASKSYEKDGTKVEISYGSGTVRGYFSKDVISLGDLSLPYKFIEVTDADDLEPIYSGSEFDGILGLGWKDLSIGSIDPVVVELKKQNKIDNALFTFYLPVHDKHVGYLTIGGIESDFYEGPLTYEKLNHDLYWQIDLDIHFGKYVMQKANAVVDSGTSTITAPTSFLNKFFRDMNVIKVPFLPLYVTTCDNDDLPTLEFHSRNNKYTLEPEFYMDPLSDIDPALCMLYILPVDIDDNTFILGDPFMRKYFTVFDYEKESVGFAVAKNL”, the “soluble on expression in E. coli” value is reported as “soluble”.
For “SENDVIELDDVANLMFYGEGEVGDNHQKFMLIFDTGSANLWVPSKKCNSIGCSTKHLYDSSKSKSYEKDGTKVEITYGSGTVRGFFSKDLVTLGYLSLPYKFIEVTDTDDLEPLYTAAEFDGILGLGWKDLSIGSIDPIVVELKNQNKIDQALFTFYLPVHDKHSGYLTIGGIEEKFYEGELTYEKLNHDLFWQVDLDVNFGKTSMEKANVIVDSGTSTITAPTSFINKFFKDLNVIKVPFLPFYITTCNNKDMPTLEFKSANNTYTLEPEYYMEPLLDIDDTLCMLYILPVDIDKNTFILGDPFMRKYFTVFDYDKESIGFAVAKN”, the “soluble on expression in E. coli” value was “soluble”.
With “SENLYFQGSASATCERCKGGFAPAEKIVNSNGELYHEQCFVCAQCFQQFPEGLFYEFEGRKYCEHDFQMLFA” the “soluble on expression in E. coli” value was “soluble”.
With “SEQDKWKTSAQLWQNLDEETIRALWNVQGQLNKLEEERDKAIEEIERQFLESSRPLYEERQRICSLVDRFWFHVLCSHPYTGTKMTNKDRTVLQHLEDVFFTEIENCMQGYQINLKFSPNDYIEDEIIWKQVKYVDDLQGWKGAASGIRWKRQDSIIDPDNEFFSDGEEVLQLTEKGNTVAKLQRKARSLLSWFETEDVTDNLKDVFYEDIWQHCIDWFFARDNASIEEFPVTMEGEQEDIVMID” the “soluble on expression in E. coli” value was “soluble”.
With “SESPWIAEDTSQIQTKLLEFAKSPEVFDWMVKIRRKIHENPELGYEELETSKLIRSELELIGIKYRYPVAITGVIGYIGTGEPPFVALRADMDALPIQEGVEWEHKSKIAGKMHACGHDGHVTMLLGAAKILHEHRHHLQGTVVLIFQPAEEGLSGAKKMREEGALKNVEAIFGIHLSARIPFGKAASRAGSFLAGAGVFEAVITGKGGHAAIPQHTIDPVVAASSIVLSLQQLVSRETDPLDSKVVTVSKVNGGNAFNVIPDSITIGGTLRAFTGFTQLQQRVKEVITKQAAVHRCNASVNLTPNGREPMPPTVNNKDLYKQFKKVVRDLLGQEAFVEAAPVMGSEDFSYFAETIPGHFSLLGMQDETNGYASSHSPLYRINEDVLPYGAAIHASMAVQYLKEKASKGSVSGFHEEL” the “soluble on expression in E. coli” value was “soluble”.
With “SETQKTQAENPPKPATSSCRKKTKDDANFLEDVKDHIDDFINASMDDHKNCFNKTIKKMFGLSKAVADKQQSEAKGGVESYLPLQTTVSD” the “soluble on expression in E. coli” value was “soluble”.
With “SFHYQALPMRVSFEVGAVTKIGEELDRLGLSRALVLCTPEQKHLADLVMDHLGDRGAGIFDQARMHVPVETADRARDRARKLGADSCVVIGGGSSIGLGKAIALEHGLPIIAIPTTYAGSEMTPIWGLTRDGRKQTGRDAKVLPQSVIYDPQLTAT” the “soluble on expression in E. coli” value was “not soluble”.
For “SFLSNVKYNFMRIIKYEFILNDALNQSIIRANAQYLTAAALHNLDEAVKFDMGAYKSSKDDAKITVILRISKTQLYVTAQDEDQPVLLKEMPEIPKTITGSETNLLFFWETHGTKNYFTSVAHPNLFIATKQDYWVCLAGGPPSITDFQILENQA”, the “soluble on expression in E. coli” value was “soluble”.
For “SGAMYIDCDGIKLNAYLDMPKNNPEKCPLCIIIHGFTGHSEERHIVAVQETLNEIGVATLRADMYGHGKSDGKFEDHTLFKWLTNILAVVDYAKKLDFVTDIYMAGHSQGGLSVMLAAAMERDIIKALIPLSPAAMIPEIARTGELLGLKFDPENIPDELDAWDGRKLKGNYVRVAQTIRVEDFVDKYTKPVLIVHGDQDEAVPYEASVAFSKQYKNCKLVTIPGDTHCYDHHLELVTEAVKEFMLEQIAK”, the “soluble on expression in E. coli” value was “soluble”.
With “SGCFGCFSPEVDDDLKPSKPNYHSSDESSGADARRKVAPLATDGGNGYAHSFTFKDLSVATGYFNEANFIGEGGFGKVYKGKINGQMVAVKQLTRDGVQGRNEFLVEVLMLTVLNHPHLVSLVGFCAQGDERLLVYEYMPFGSLESHLFDVPLGKQPLDWNTRMRIAVGVAEGLSYLHNVADPPIIYRDMKAANILLDEDYRPKLSDFGLAKVGPVGDRTHVSTRVMGTYGYCAPDYVVSGKLTMKSDIYSFGVLLLELITGRRIYDASRPKPEQSLLTWSRPFLHDKRKFYRLADPALHGCYPTSALNQLVVISIMCLQDQPHVRPIISDVVIGLNHVASQPYVPERSSVSLSSPARCGSPQYAGTPSRRRGGRRVAQYA” the “soluble on expression in E. coli” value was “soluble”.
With “SGDFTWSSNLVFSWNKNEIKDLYGDGQNDLGNRWFLGHPIGVIYDYTMVGIWQEDEIARGDHLNWDPIAEAGDVKLADISGPDGVPDGKIDDNDRTIKGQTTPKWIGGLTNTFTYKDFTLSIFIQTTQGLKKNNSLIGMAGDEMGRRNTTTEIGYWTPENKSNEWRSLRKNSNKHGYGFPCDASYTRIKDITLSYTFPQRMIQKMGIGGLQLYVSGRNLFTFTDWVGWDPEARQVARGNSSWDSTRGETVYDSSNYPMTKSCVFGVNLTF” the “soluble on expression in E. coli” value was “not soluble”.
In the case of “SGDKPPGFRGSRDWIGCVEASLCLAHFGGPQGRLCHVPRGVGLHGEVERLYSHFAGGGGPVMVGGDADARSKALLGVCVGSGTEAYVLVLDPHYWGTPKSPSELQAAGWVGWQEVSAAFDPNSFYNLCLTSLSSQQQQRTLD”, the “soluble on expression in E. coli” value is reported as “soluble”.
In the case of “SGGPGTKSGEPLCPPLLCNQDKETLTLLIQVPRIQPQSLQGDLNPLWYKLRFSAQDLVYSFFLQFAPENKLSTTEPVISISSNNAVIELAKSPESHGHWREWYYGVNNDSLELQECSNSDQLQGKEERVNEESHLTEKEYIEHCNTPTTDSDSSIAVKALQIDSFGLVTCFQQESLDVSQMILGKSQQPESKMQSEFIKEKSATCSNEEKDNLNESVITEEKETDGDHLSSLLNKTTVHNIPGFDSIKETNMQDGSVQVIKDHVTNCAFSFQNSLLYDLD”, the “soluble on expression in E. coli” value is reported as “soluble”.
In the case of “SGGTSSSTAHLAVVNIIGTIDSSNQSVNSEDTNKALERAFEAKNSKAVALNINSPGGSPVQSDEIWQEIRYLKKQHPDKKVYAVIGDMGASGAYYIASAADEIIVNPSSLVGSIGVIMPNYGITGLAQKLGIEDRTLTSGSNKDILSMTKPVNPAQREHIQSVLDNVHAHFINAVKEGRGTRLKSNDPAIFSGLFWTGEQAIQLGVAD”, the “soluble on expression in E. coli” value is reported as “not soluble”.
In the case of “SGIAVSDDCVQKFNELKLGHQHRYVTFKMNASNTEVVVEHVGGPNATYEDFKSQLPERDCRYAIFDYEFQVDGGQRNKITFILWAPDSAPIKSKMMYTSTKDSIKKKLVGIQVEVQATDAAEISEDAVSERAKKDVK”, the “soluble on expression in E. coli” value is reported as “soluble”.
With “SGSHTALIEVKGMIADDEPASADNIVTALRAAFKDEGTKGIVLRINSPGGSPVQSGYIYDEIRRLRGEHPNVKVYAVISDLGASGAYYIASAADQIYADKASLVGSIGVTAASFGFVGTMEKLGVERRVYTSGEHKSFLDPFQPQKPEETQFWQQVLDTTHKQFIDSVKKGRGDRLKVEGHPELFSGLVWSGEQALQLGLIDGLGNASYVAREVVKEKKIEDYTVQESPFDRFAKKFGASVAERLALWMGWQGPVLR” the “soluble on expression in E. coli” value was “not soluble”.
With “SHEELNDQLRVRREKLKKIEELGVDPFGKRFERTHKAEELFELYGDLSKEELEEQQIEVAVAGRIMTKRGMGKAGFAHIQDVTGQIQIYVRQDDVGEQQYELFKISDLGDIVGVRGTMFKTKVGELSIKVSSYEFLTKALRPLPEKYHGLKDIEQRYRQRYLDLIMNPESKKTFITRSLIIQSMRRYLDSHGYLEVETPMMHAVAGGAAARPFITHHNALDMTLYMRIAIELHLKRLIVGGLEKVYEIGRVFRNEGISTRHNPEFTMLELYEAYADFRDIMKLTENLIAHIATEVLGTTKIQYGEHLVDLTPEWRRLHMVDAIKEYVGVDFWRQMSDEEARELAKEHGVEVAPHMTFGHIVNEFFEQKVEDKLIQPTFIYGHPVEISPLAKKNPDDPRFTDRFELFIVGREHANAFTELNDPIDQRQRFEEQLKEREQGNDEAHEMDEDFLEALEYGMPPTGGLGIGVDRLVMLLTNSPSIRDVLLFPQMRHK” the “soluble on expression in E. coli” value was “soluble”.
With “SHKLPSGPPMHHFNSRYSETGCVGMQIRDAHEENPESILDEHVQRVMKTPGCQSPGTGRHSPKSRSPDGH” the “soluble on expression in E. coli” value was “soluble”.
For “SHMAPEDPNEEAVSQIFPDSVMLAVQEGIDLLTFPPAPGSPE”, the “soluble on expression in E. coli” value was “soluble”.
With “SILEGGGVMNLNPGNNLLHQPPAWTDSYSTCNVSSGFFGGQWHEIHPQYWTKYQVWEWLQHLLDTNQLDANCIPFQEFDINGEHLCSMSLQEFTRAAGTAGQLLYSNLQHLKWNGQCSSDLFQSTHNVIVKTEQTEPSIMNTWKDENYLYDTNYGSTVDLLDSKTFCRAQISMTTTSHLPVAESPDMKKEQDPPAKCHTKKHNPRGTHLWEFIRDILLNPDKNPGLIKWEDRSEGVFRFLKSEAVAQLWGKKKNNSSMTYEKLSRAMRYYYKREILERVDGRRLVYKFGKNARGWRENEN” the “soluble on expression in E. coli” value was “soluble”.
In the case of “SIVLEPIYWNSSNSKFLPGQGLVLYPQIGDKLDIICPKVDSKTVGQYEYYKVYMVDKDQADRCTIKKENTPLLNCAKPDQDIKFTIKFQEFSPNLWGLEFQKNKDYYIISTSNGSLEGLDNQEGGVCQTRAMKILMKVGQDAS”, the “soluble on expression in E. coli” value is reported as “soluble”.
With “SKIFDFVKPGVITGDDVQKVFQVAKENNFALPAVNCVGTDSINAVLETAAKVKAPVIVQFSNGGASFIAGKGVKSDVPQGAAILGAISGAHHVHQMAEHYGVPVILHTDHCAKKLLPWIDGLLDAGEKHFAATGKPLFSSHMIDLSEESLQENIEICSKYLERMSKIGMTLEIELGCTGGEEDGVDNSHMDASALYTQPEDVDYAYTELSKISPRFTIAASFGNVHGVYKAGNVVLTPTILRDSQEYVSKKHNLPHNSLNFVFHGGSGSTAQEIKDSVSYGVVKMNIDTDTQWATWEGVLNYYKANEAYLQGQLGNPKGEDQPNKKYYDPRVWLRAGQTSMIARLEKAFQELNAIDVL” the “soluble on expression in E. coli” value was “soluble”.
With “SKIKDAKKPSFPWFGMDIGGTLVKLSYFEPIDITAEEEQEEVESLKSIRKYLTSNVAYGSTGIRDVHLELKDLTLFGRRGNLHFIRFPTQDLPTFIQMGRDKNFSTLQTVLCATGGGAYKFEKDFRTIGNLHLHKLDELDCLVKGLLYIDSVSFNGQAECYYFANASEPERCQKMPFNLDDPYPLLVVNIGSGVSILAVHSKDNYKRVTGTSLGGGTFLGLCSLLTGCESFEEALEMASKGDSTQADKLVRDIYGGDYERFGLPGWAVASSFGNMIYKEKRESVSKEDLARATLVTITNNIGSVARMCAVNEKINRVVFVGNFLRVNTLSMKLLAYALDYWSKGQLKALFLEHEGYFGAVGALLGLPNFS” the “soluble on expression in E. coli” value was “soluble”.
For “SKKVIVIAGTTGVGKSQLSIQLAQKFNGEVINSDSMQVYKDIPIITNKHPLQEREGIPHHVMNHVDWSEEYYSHRFETECMNAIEDIHRRGKIPIVVGGTHYYLQTLFNKRVDTKSSERKLTRKQLDILESTDPDVIYNTLVKCDPDIATKYHPNDYRRVQRMLEIYYKTGKKPSETFNEQKITLKFDTLFLWLYSKPEPLFQRLDDRVDDMLERGALQEIKQLYEYYSQNKFTPEQCENGVWQVIGFKEFLPWLTGKTDDNTVKLEDCIERMKTRTRQYAKRQVKWIKKMLIPDIKGDIYLLDATDLSQWDTNASQRAIAISNDFISNRPIKQERAPKALEELLSKGETTMKKLDDWTHYTCNVCRNADGKNVVAIGEKYWKIHLGSRRHKSNLKRNTRQADFEKWKI”, the “soluble on expression in E. coli” value was “soluble”.
In the case of “SKLLDKDGKVFAEVGTERREYIEYKDIPETLKNAILTTEDARFYEHDGIDPIRLGGAVVANVTDGFGAEGASTLSQQIIKMSYLDYTNKTLARKAQEAWLALQLEEKYSKNDILEIYVNKVYMSDRVHGMQTAAEHYFGKNVKDLTLAETALLAGMPQSPNNYNPYDHP”, the “soluble on expression in E. coli” value is reported as “not soluble”.
